Molecular target: T1, Human C-reactive protein, pentameric (pCRP) (human), P02741
T1 chain: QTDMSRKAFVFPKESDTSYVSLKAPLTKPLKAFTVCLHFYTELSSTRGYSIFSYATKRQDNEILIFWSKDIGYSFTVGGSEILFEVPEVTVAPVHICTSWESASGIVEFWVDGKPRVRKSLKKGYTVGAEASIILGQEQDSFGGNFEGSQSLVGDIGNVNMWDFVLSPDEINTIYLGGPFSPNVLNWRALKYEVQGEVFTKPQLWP
Assay: crystal structure; pCRP at 8 mg/ml in 20 mM Tris, 140 mM NaCl, 2 mM CaCl2, co-crystallised with C10M (1:3 molar ratio pCRP:C10M); hanging drop at 20°C; well buffer 100 mM Tris pH 9, 10% PEG 4000, 50 mM LiCl, 200 mM MgCl2; oligomer seen: pentamer
Details: remark: other sources report otherwise

B1: Human C-reactive protein, pentameric (pCRP), P02741 19-224 (natural protein)
chain: QTDMSRKAFVFPKESDTSYVSLKAPLTKPLKAFTVCLHFYTELSSTRGYSIFSYATKRQDNEILIFWSKDIGYSFTVGGSEILFEVPEVTVAPVHICTSWESASGIVEFWVDGKPRVRKSLKKGYTVGAEASIILGQEQDSFGGNFEGSQSLVGDIGNVNMWDFVLSPDEINTIYLGGPFSPNVLNWRALKYEVQGEVFTKPQLWP
stoichiometry N: 5
